± gives the standard error. Fewer inactive variants are shown than the library holds.
B1: glmS ribozyme (parent)
chain: AUAAAAGCGCCAGAACUACAGAAAUGUAGUUGACGAGGAGGAGGUUUAUCGAAUUUUCGGCGGAUGCCUCCAAA

Variants of: B1
Test: self-cleavage kobs at 2500 uM GlcN6P; higher = faster cleavage; RNA array
Details: with glucosamine-6-phosphate
In short: (§1)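 Glucosamine-6-phosphate (40 μM to 10 mM) in HEPES/KCl/Mg(OAc)2 buffer was flowed over sequenced MiSeq chips, and tiles were imaged over ~14 h. Barcoded ribozyme variants there had been transcribed in situ by E. coli RNA polymerase and were tracked through a hybridised Cy3 probe at 37 °C. One- or two-exponential decay fits to per-tile medians, normalised to baseline and to non-cleaving reference variants, gave kobs. kcat and KM came from weighted Michaelis–Menten fits across concentrations.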

First: A12U U31G U56A
Second: A52U U57A C71U
The “self-cleavage kobs at 2500 uM GlcN6P” value of the first is 8-fold higher: 0.00599 ± 0.0012 s⁻¹ for the first, 0.000749 ± 0.00022 s⁻¹ for the second.

Going from G9C A42C A48C C58G C71G to G35C C50G U54G, the “self-cleavage kobs at 2500 uM GlcN6P” value rises from < 1e-05 s⁻¹ to 8.42e-05 ± 1.5e-05 s⁻¹.

C16U G41C G44C G59C and A12G A39C G51U U56A cannot be ordered by “self-cleavage kobs at 2500 uM GlcN6P” value: < 1e-05 s⁻¹ for the first, < 1e-05 s⁻¹ for the second.

Going from G40U A42G C70U to G7A A33U C61G C70G, the “self-cleavage kobs at 2500 uM GlcN6P” value falls from 0.00344 ± 0.00066 s⁻¹ to < 1e-05 s⁻¹.

Going from A12G G32C A36U to A15U G41C, the “self-cleavage kobs at 2500 uM GlcN6P” value rises from < 1e-05 s⁻¹ to 2.7e-05 ± 1.2e-05 s⁻¹.

First: G40A U46G C67U
Second: G29C A53C C67U
The “self-cleavage kobs at 2500 uM GlcN6P” value of the first is 2.8-fold higher: 0.000431 ± 0.0002 s⁻¹ for the first, 0.000153 ± 4.1e-05 s⁻¹ for the second.

A6C U31C G59C G62U and G13C A33C G63A A64C cannot be ordered by “self-cleavage kobs at 2500 uM GlcN6P” value: < 1e-05 s⁻¹ for the first, < 1e-05 s⁻¹ for the second.

G43C G51C G59U and G13U G51C U57A C71A cannot be ordered by “self-cleavage kobs at 2500 uM GlcN6P” value: < 1e-05 s⁻¹ for the first, < 1e-05 s⁻¹ for the second.

C10A G13U A36U U55C C67U and C8A C10U G32A A48G cannot be ordered by “self-cleavage kobs at 2500 uM GlcN6P” value: < 1e-05 s⁻¹ for the first, < 1e-05 s⁻¹ for the second.

A12U A64G C67G and A14U U55G C58G are within error of each other in “self-cleavage kobs at 2500 uM GlcN6P” value: 7.12e-05 ± 2.2e-05 s⁻¹ for the first, 5.25e-05 ± 1.2e-05 s⁻¹ for the second.

G7A C34U A36C and A6U G9A C68U cannot be ordered by “self-cleavage kobs at 2500 uM GlcN6P” value: < 1e-05 s⁻¹ for the first, < 1e-05 s⁻¹ for the second.

A52U A53U G62A U65G C71G and U46C G60C C61U cannot be ordered by “self-cleavage kobs at 2500 uM GlcN6P” value: < 1e-05 s⁻¹ for the first, < 1e-05 s⁻¹ for the second.

Compared with G9A A15U A48G C70G C71U, G32U A42G C58G C70U is higher in “self-cleavage kobs at 2500 uM GlcN6P” value: < 1e-05 s⁻¹ for the first, 0.000198 ± 8.4e-05 s⁻¹ for the second.

First: A15G G37C U57G C67U
Second: A14G U30A G41C
The “self-cleavage kobs at 2500 uM GlcN6P” value of the first is lower: < 1e-05 s⁻¹ for the first, 0.000337 ± 0.00013 s⁻¹ for the second.

First: A6C A39G G51C
Second: C16G A36G U69G
The “self-cleavage kobs at 2500 uM GlcN6P” value of the first is lower: < 1e-05 s⁻¹ for the first, 4.76e-05 ± 2.4e-05 s⁻¹ for the second.

Compared with G29A G63C C68G, C58A G59C C71U is lower in “self-cleavage kobs at 2500 uM GlcN6P” value: 0.000233 ± 6.2e-05 s⁻¹ for the first, < 1e-05 s⁻¹ for the second.

Going from A15G U45G U46C to G7U G41A U47G C71G, the “self-cleavage kobs at 2500 uM GlcN6P” value falls from 0.00283 ± 0.001 s⁻¹ to < 1e-05 s⁻¹.

G29U G38C U56G and C10G U56C cannot be ordered by “self-cleavage kobs at 2500 uM GlcN6P” value: < 1e-05 s⁻¹ for the first, < 1e-05 s⁻¹ for the second.

A36C G44U C67U and C34U G59A C71U cannot be ordered by “self-cleavage kobs at 2500 uM GlcN6P” value: < 1e-05 s⁻¹ for the first, < 1e-05 s⁻¹ for the second.

A6U G32C C34U and C16U G37U A42G G51U cannot be ordered by “self-cleavage kobs at 2500 uM GlcN6P” value: < 1e-05 s⁻¹ for the first, < 1e-05 s⁻¹ for the second.

Variants of: B1
Test: self-cleavage kobs at 10000 uM GlcN6P; higher = faster cleavage; RNA array
Details: with glucosamine-6-phosphate
In short: as §1

Going from A52U U57A C71U to G35C C50G U54G, the “self-cleavage kobs at 10000 uM GlcN6P” value falls from 0.00177 ± 0.00039 s⁻¹ to 0.000106 ± 1.6e-05 s⁻¹ (17-fold).

U46C G60C C61U and C10G U56C cannot be ordered by “self-cleavage kobs at 10000 uM GlcN6P” value: < 1e-05 s⁻¹ for the first, < 1e-05 s⁻¹ for the second.
